Measured values from patent publication US20240376151A1, “STAPLED PEPTIDES AND METHODS THEREOF” (FOG PHARMACEUTICALS, INC., priority 2022, published 2024).
Ends that are not written are not given here.

Molecular target: T1, beta-catenin (Homo sapiens, UniProt P35222)
T1 construct: made in house; host or cells: E. coli BL21 (DE3) pLysS
T1 sequence (P35222 134-665): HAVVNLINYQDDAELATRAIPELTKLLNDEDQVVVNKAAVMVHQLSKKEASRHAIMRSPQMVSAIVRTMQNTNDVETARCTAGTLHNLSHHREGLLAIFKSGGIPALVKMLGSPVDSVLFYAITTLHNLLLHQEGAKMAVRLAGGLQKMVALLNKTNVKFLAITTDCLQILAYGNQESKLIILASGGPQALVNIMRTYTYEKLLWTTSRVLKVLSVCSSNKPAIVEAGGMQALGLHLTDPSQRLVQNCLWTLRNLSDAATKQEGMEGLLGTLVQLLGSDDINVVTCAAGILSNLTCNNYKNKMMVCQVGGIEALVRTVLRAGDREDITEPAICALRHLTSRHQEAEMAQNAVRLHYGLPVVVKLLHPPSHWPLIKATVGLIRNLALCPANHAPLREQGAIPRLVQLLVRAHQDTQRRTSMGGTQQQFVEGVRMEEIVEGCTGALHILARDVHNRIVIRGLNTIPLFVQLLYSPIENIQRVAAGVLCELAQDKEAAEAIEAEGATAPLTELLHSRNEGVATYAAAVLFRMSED
Assay: Phage Library Screening with NGS, beta-catenin
Type: binding
Conditions: for Target Concentration 10 (phage screen NGS readout): beta-catenin target concentration 10; for Target Concentration 10 (phage screen NGS readout) / Target Concentration 30 (phage screen NGS readout) / Target Concentration 100 (phage screen NGS readout) / Target Concentration 300 (phage screen NGS readout): no competitor; for Target Concentration 30 (phage screen NGS readout): beta-catenin target concentration 30; for Target Concentration 100 (phage screen NGS readout): beta-catenin target concentration 100; for Target Concentration 300 (phage screen NGS readout): beta-catenin target concentration 300; for Target Concentration 1000 (phage screen NGS readout): beta-catenin target concentration 1000

| Sequence | Target Concentration BLANK (phage screen NGS readout) (first column) | Target Concentration BLANK (phage screen NGS readout) (fourth column) | Target Concentration BLANK (phage screen NGS readout) (second column) | Target Concentration BLANK (phage screen NGS readout) (third column) | Target Concentration 10 (phage screen NGS readout) | Target Concentration 30 (phage screen NGS readout) | Target Concentration 100 (phage screen NGS readout) | Target Concentration 300 (phage screen NGS readout) | Target Concentration 1000 (phage screen NGS readout) (first 1000 column) | Target Concentration 1000 (phage screen NGS readout) (second 1000 column) |
| --- | --- | --- | --- | --- | --- | --- | --- | --- | --- | --- |
| DPAILQCYEAAFSCHYQ | 0 | 0 | 0 | 0 | 0 | 9 | 40 | 54 | 39 | 42 |
| DPADYECVIAAQVCQHF (not fully specified; cysteine pairing not given here) | 0 | 0 | 4 | 0 | 0 | 1 | 11 | 18 | 19 | 14 |
| DPAILNCHMAAWDCNFY | 0 | 0 | 0 | 1 | 0 | 7 | 14 | 57 | 37 | 59 |
| DPAILECYEAAFECQYM | 0 | 0 | 0 | 0 | 7 | 8 | 20 | 49 | 41 | 39 |
| DPAMSQCNWAAVHCQLL | 0 | 0 | 0 | 0 | 6 | 6 | 6 | 13 | 15 | 23 |
| DPAFLTCHIAAWACSEQ | 0 | 0 | 2 | 1 | 0 | 1 | 21 | 15 | 52 | 25 |
| DPAVIQCYQAAFHCDYQ | 0 | 0 | 0 | 3 | 0 | 0 | 0 | 13 | 12 | 30 |
| DPATIRCYEAAFMCQYW | 0 | 0 | 0 | 0 | 0 | 0 | 3 | 34 | 21 | 38 |
| DPAEWYCEHAALVCTNH | 2 | 1 | 0 | 0 | 0 | 12 | 47 | 156 | 148 | 155 |

Now from value to sequence:

| Target Concentration BLANK (phage screen NGS readout) (first column) | Target Concentration BLANK (phage screen NGS readout) (fourth column) | Target Concentration BLANK (phage screen NGS readout) (second column) | Target Concentration BLANK (phage screen NGS readout) (third column) | Target Concentration 10 (phage screen NGS readout) | Target Concentration 30 (phage screen NGS readout) | Target Concentration 100 (phage screen NGS readout) | Target Concentration 300 (phage screen NGS readout) | Target Concentration 1000 (phage screen NGS readout) (first 1000 column) | Target Concentration 1000 (phage screen NGS readout) (second 1000 column) | Sequence |
| --- | --- | --- | --- | --- | --- | --- | --- | --- | --- | --- |
| 0 | 0 | 0 | 0 | 0 | 4 | 21 | 44 | 31 | 66 | DPAVDECIIAAHICHIW |
| 0 | 0 | 0 | 0 | 2 | 1 | 17 | 99 | 61 | 107 | DPAEFYCEMAAVHCELL |
| 0 | 0 | 0 | 0 | 0 | 0 | 2 | 3 | 1 | 18 | DPAWILCDWAAMHCELV |
| 0 | 0 | 0 | 0 | 0 | 0 | 0 | 0 | 0 | 13 | DPAVVECYEAAYTCQYI |
| 0 | 0 | 0 | 0 | 0 | 0 | 16 | 42 | 39 | 29 | DPAILDCSIAAIDCAYS |
| 0 | 0 | 1 | 0 | 0 | 7 | 18 | 71 | 69 | 105 | DPAILTCYEAAFTCQYQ |
